Experimental findings from publication PMC11118347 (bioRxiv, 2024) are described below.

One may read the stoichiometry N as the number of molecules, sites or subunits per partner or assembly.

The series deals with the molecule itself. The experiment in a line: crystal structure.

B1: Human lens fiber membrane intrinsic protein MP20 (construct selected for crystallization) (natural protein)
chain: MYSFMGGGLFCAWVGTILLVVAMATDHWMQYRLSGSFAHQGLWRYCLGNKCYLQTDSIAYWNATRAFMILSALCAISGIIMGIMAFAHQPTFSRISRPFSAGIMFFSSTLFVVLALAIYTGVTVSFLGRRFGDWRFSWSYILGWVAVLMTFFAGIFYMCAYRVHECRRLSTPR
modifications: Janelia Fluor 549 NHS-ester labelling on column; membranes incubated with iodoacetamide
In the case of B1, the “stoichiometry N” value was 4.
